# Measured values taken from the supplement of paper PMC6755084.
# B1: F1*; the commonest letter at each place (parent)
# chain: GAGACCGCAACTGAAAAGTTGTTATCACTTGTCGTAAGACACTTTGGATGGGTTGAAGTTCTGCACGTAGAAGCAAAAGGC
# Variants of: B1
# Assay: fraction ligated after 30 min (ligated reads / total reads); higher = more ligase activity
# Conditions: with F1*sub RNA substrate (template-directed ligation), 42 °C
# Summary of the method: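 Oligo-pool templates underwent PCR amplification, T7 transcription and gel purification to yield ribozyme variants. Gel-separated ligated and unligated bands were converted to complementary DNA with barcoded primers and sequenced on a MiSeq, keeping core bases of quality ≥20. The ratio of ligated reads to total reads gave the fraction ligated for every variant.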
row,Variant,fraction ligated
1,GAGACCGCAACTGAAAAGTTGTTATCACTTGTCGTAGGAAACTTTGGATGGGTTGAAGTTCTGCACGTAGAAGCAAAAGGC [A37G C40A],0.807
2,GAGACCGCAACTGAAAAGTTGTTATCACTTGTCGTAGGAGACTTTGGATGGGTTGAAGTTCTGCACGTAGAAGCAAAAGGC [A37G C40G],0.829
3,GAGACCGCAACTGAAAAGTTGTTATCACTTGTCGTAGGATACTTTGGATGGGTTGAAGTTCTGCACGTAGAAGCAAAAGGC [A37G C40T],0.854
4,GAGACCGCAACTGAAAAGTTGTTATCACTTGTCGTAGGACACTTTGAATGGGTTGAAGTTCTGCACGTAGAAGCAAAAGGC [A37G G47A],0.831
5,GAGACCGCAACTGAAAAGTTGTTATCACTTGTCGTAGGACACTTTGTATGGGTTGAAGTTCTGCACGTAGAAGCAAAAGGC [A37G G47T],0.397
6,GAGACCGCAACTGAAAAGTTGTTATCACTTGTCGTAGGACACTTTGCATGGGTTGAAGTTCTGCACGTAGAAGCAAAAGGC [A37G G47C],0.269
7,GAGACCGCAACTGAAAAGTTGTTATCACTTGTCGTATGACACTTTGGATGGGTTGAAGTTCTGCACGTAGAAGCAAAAGGC [A37T],0.853
8,GAGACCGCAACTGAAAAGTTGTTATCACTTGTCGTAGGACACTTTGGATGGGTTCAAGTTCTGCACGTAGAAGCAAAAGGC [A37G G55C],0.833
9,GAGACCGCAACTGAAAAGTTGTTATCACTTGTCGTAGGACACTTTGGATGGGTTTAAGTTCTGCACGTAGAAGCAAAAGGC [A37G G55T],0.834
10,GAGACCGCAACTGAAAAGTTGTTATCACTTGTCGTAGGACACTTTGGATGGGTTAAAGTTCTGCACGTAGAAGCAAAAGGC [A37G G55A],0.846
11,GAGACCGCAACTGAAAAGTTGTTATCACTTGTCGTAGGACACTTTGGATAGGTTGAAGTTCTGCACGTAGAAGCAAAAGGC [A37G G50A],0.659
12,GAGACCGCAACTGAAAAGTTGTTATCACTTGTCGTAGGACACTTTGGATCGGTTGAAGTTCTGCACGTAGAAGCAAAAGGC [A37G G50C],0.45
13,GAGACCGCAACTGAAAAGTTGTTATCACTTGTCGTAGGACACTTTGGATTGGTTGAAGTTCTGCACGTAGAAGCAAAAGGC [A37G G50T],0.785
14,GAGACCGCAACTGAAAAGTTGTTATCACTTGTCGTAGGACACTTTCGATGGGTTGAAGTTCTGCACGTAGAAGCAAAAGGC [A37G G46C],0.81
15,GAGACCGCAACTGAAAAGTTGTTATCACTTGTCGTAGGACACTTTTGATGGGTTGAAGTTCTGCACGTAGAAGCAAAAGGC [A37G G46T],0.806
16,GAGACCGCAACTGAAAAGTTGTTATCACTTGTCGTAGGACACTTTAGATGGGTTGAAGTTCTGCACGTAGAAGCAAAAGGC [A37G G46A],0.818
17,GAGACCGCAACTGAAAAGTTGTTATCACTTGTCGTAGCACACTTTGGATGGGTTGAAGTTCTGCACGTAGAAGCAAAAGGC [A37G G38C],0.828

row,Variant,fraction ligated
1,GAGACCGCAACTGAAAAGTTGTTATCACTTGTCGTAGTACACTTTGGATGGGTTGAAGTTCTGCACGTAGAAGCAAAAGGC [A37G G38T],0.849
2,GAGACCGCAACTGAAAAGTTGTTATCACTTGTCGTAGAACACTTTGGATGGGTTGAAGTTCTGCACGTAGAAGCAAAAGGC [A37G G38A],0.882
3,GAGACCGCAACTGAAAAGTTGTTATCACTTGTCGTAGGACAATTTGGATGGGTTGAAGTTCTGCACGTAGAAGCAAAAGGC [A37G C42A],0.859
4,GAGACCGCAACTGAAAAGTTGTTATCACTTGTCGTAGGACATTTTGGATGGGTTGAAGTTCTGCACGTAGAAGCAAAAGGC [A37G C42T],0.857
5,GAGACCGCAACTGAAAAGTTGTTATCACTTGTCGTAGGACAGTTTGGATGGGTTGAAGTTCTGCACGTAGAAGCAAAAGGC [A37G C42G],0.857
6,GAGACCGCAACTGAAAAGTTGTTATCACTTGTCGTAGGACACTTTGGAAGGGTTGAAGTTCTGCACGTAGAAGCAAAAGGC [A37G T49A],0.796
7,GAGACCGCAACTGAAAAGTTGTTATCACTTGTCGTAGGACACTTTGGAGGGGTTGAAGTTCTGCACGTAGAAGCAAAAGGC [A37G T49G],0.807
8,GAGACCGCAACTGAAAAGTTGTTATCACTTGTCGTAGGACACTTTGGACGGGTTGAAGTTCTGCACGTAGAAGCAAAAGGC [A37G T49C],0.744
9,GAGACCGCAACTGAAAAGTTGTTATCACTTGTCGTAGGACACTATGGATGGGTTGAAGTTCTGCACGTAGAAGCAAAAGGC [A37G T44A],0.839
10,GAGACCGCAACTGAAAAGTTGTTATCACTTGTCGTAGGACACTCTGGATGGGTTGAAGTTCTGCACGTAGAAGCAAAAGGC [A37G T44C],0.869
11,GAGACCGCAACTGAAAAGTTGTTATCACTTGTCGTAGGACACTGTGGATGGGTTGAAGTTCTGCACGTAGAAGCAAAAGGC [A37G T44G],0.85
12,GAGACCGCAACTGAAAAGTTGTTATCACTTGTCGTAGGACACTTCGGATGGGTTGAAGTTCTGCACGTAGAAGCAAAAGGC [A37G T45C],0.803
13,GAGACCGCAACTGAAAAGTTGTTATCACTTGTCGTAGGACACTTAGGATGGGTTGAAGTTCTGCACGTAGAAGCAAAAGGC [A37G T45A],0.804
14,GAGACCGCAACTGAAAAGTTGTTATCACTTGTCGTAGGACACTTGGGATGGGTTGAAGTTCTGCACGTAGAAGCAAAAGGC [A37G T45G],0.407
15,GAGACCGCAACTGAAAAGTTGTTATCACTTGTCGTAGGACACGTTGGATGGGTTGAAGTTCTGCACGTAGAAGCAAAAGGC [A37G T43G],0.814
16,GAGACCGCAACTGAAAAGTTGTTATCACTTGTCGTAGGACACCTTGGATGGGTTGAAGTTCTGCACGTAGAAGCAAAAGGC [A37G T43C],0.853
17,GAGACCGCAACTGAAAAGTTGTTATCACTTGTCGTAGGACACATTGGATGGGTTGAAGTTCTGCACGTAGAAGCAAAAGGC [A37G T43A],0.867
